The values below come from patent US20080241098A1 (Pfizer, published 2008).

The target of this assay is T1, human MU-1 Ig fusion protein (human, UniProt Q9HBE5 20-235).
T1 construct: also called MUFc; IL-21R; not shown: Ig part of the fusion protein
In words: Biacore, MU-1 Ig fusion protein immobilized on chip. As to the method:
Both human and murine Ig fusion proteins were constructed and immobilized on Biacore chips in an effort to identify the ligand for MU-1. A variety of cell culture conditioned media as well as a panel of known cytokines were evaluated for binding to MU-1. Some cytokines were also tested in combination with other receptor chains in the family to consider the possibility that MU-1 may require a second receptor chain for ligand binding. The following cytokines were tested and found to be negative for MU-1 binding: mIL-2, hIL-2, hIL-15, mIL-7, TSLP, TSLP+IL-7, TSLP+IL-7R, TSLP+IL-7g, TSLP+IL-2, TSLP+IL-2+IL-2Rbeta, IL2-Rbeta, IL-2Rgamma, IL-7R, IL-2+IL-2Rbeta, IL-2+IL-2Rgamma, IL-15+IL-2Rbeta, IL-15+IL-2Rgamma, IL-7+IL-2Rgamma, IL-2+IL-7R, IL-15+IL-7R, IL-7+IL-7R. Known receptors have been immobilized as well and tested for MUFc binding with negative results. IL-15 will bind to IL-2Rb but not IL-2Rg or MUFc.
(In general: Surface plasmon resonance follows binding to a sensor surface in real time, without labels.)

T1 sequence (Q9HBE5 20-235): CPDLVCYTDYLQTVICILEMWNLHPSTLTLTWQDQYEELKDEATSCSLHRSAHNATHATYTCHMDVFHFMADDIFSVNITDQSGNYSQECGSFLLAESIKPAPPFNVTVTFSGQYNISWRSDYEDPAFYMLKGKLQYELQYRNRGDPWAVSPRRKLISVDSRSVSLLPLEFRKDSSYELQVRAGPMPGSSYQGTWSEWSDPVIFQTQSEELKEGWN

B1: mIL-7 (ligand, murine, UniProt P10168 26-154, looked up)
chain: ECHIKDKEGKAYESVLMISIDELDKMTGTDSNCPNNEPNFFRKHVCDDTKEAAFLNRAARKLKQFLKMNISEEFNVHLLTVSQGTQTLVNCTSKEEKNVKEQKKNDACFLKRLLREIKTCWNKILKGSI
Turning to B1, the binding result is recorded as “no binding”.

B2: mIL-2 (ligand, murine, UniProt P04351 21-169, looked up)
chain: APTSSSTSSSTAEAQQQQQQQQQQQQHLEQLLMDLQELLSRMENYRNLKLPRMLTFKFYLPKQATELKDLQCLEDELGPLRHVLDLTQSKSFQLEDAENFISNIRVTVVKLKGSDNTFECQFDDESATVVDFLRRWIAFCQSIISTSPQ
B2: the binding result is “no binding”.
